Measured values published in patent publication US20060115839A1.

Target: T1, histone H3 peptide with dimethylated Lys79 (isothermal titration calorimetry)
T1 sequence (peptide, dimethylated Lys79): IAQDFKTDLR
Experiment: isothermal titration calorimetry (data not shown)

Sequence of 53BP1 tandem tudor domain (isothermal titration calorimetry) (P70399 1480-1621 limits assumed): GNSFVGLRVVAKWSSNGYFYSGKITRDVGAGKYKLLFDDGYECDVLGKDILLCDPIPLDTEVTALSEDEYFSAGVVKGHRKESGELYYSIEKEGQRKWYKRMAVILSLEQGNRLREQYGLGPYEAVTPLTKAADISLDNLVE

Kd: < 1000 nM
Substance: 53BP1 tandem tudor domain (isothermal titration calorimetry) (from UniProt P70399 1480-1621)
